Measured values published in publication PMC8248988, “A signal capture and proofreading mechanism for the KDEL-receptor explains selectivity and dynamic range in ER retrieval” (eLife, 2021).
Changes are numbered by the printed parent chain. One block for each molecule: values may come before it. Ends that are not written are not given here.

Key:
[1] = target: TAEHDEL retrieval-signal peptide (unlabelled) K to H at position -4 relative to TAEKDEL (K651H in human BiP numbering) (UniProt P11021); assay: radioligand filter-binding assay, competition of unlabelled peptide against [3H]-TAEHDEL; conditions: pH 5.4; 20°C; 40 mM Sodium Chloride; 20 mM MES pH 5.4 (default assay buffer 'unless stated otherwise'; pH not restated for this experiment)
[2] = target: TAEKDEL retrieval-signal peptide (unlabelled) (UniProt P11021); assay: as above; conditions: pH 5.4; 20°C; 40 mM Sodium Chloride; 20 mM MES pH 5.4 (default assay buffer 'unless stated otherwise'; pH not restated for this experiment)
[3] = target: TAERDEL retrieval-signal peptide (unlabelled) K to R at position -4 relative to TAEKDEL (K651R in human BiP numbering) (UniProt P11021); assay: as above; conditions: pH 5.4; 20°C; 40 mM Sodium Chloride; 20 mM MES pH 5.4 (default assay buffer 'unless stated otherwise'; pH not restated for this experiment)
[4] = target: [3H]-TAEHDEL retrieval-signal peptide K to H at position -4 relative to TAEKDEL (K651H in human BiP numbering) (UniProt P11021); assay: radioligand filter-binding assay, direct titration (scintillation counting); conditions: 20°C, 40 mM Sodium Chloride, 20 mM MES pH 5.4 (default), the buffers used for the other pH values of Figure 3f (up to pH 7.0) are not stated
[5] = target: [3H]-TAEKDEL retrieval-signal peptide (UniProt P11021); assay: as above; conditions: pH 5.4; 20°C; 40 mM Sodium Chloride; 20 mM MES pH 5.4 (default); the buffers used for the other pH values of Figure 3f (up to pH 7.0) are not stated
[6] = target: [3H]-TAEKDEL retrieval-signal peptide (UniProt P11021); assay: in vitro binding assay of Bräuer et al. 2019 (not described here; presumably the same [3H]-TAEKDEL filter-binding assay); conditions: pH 6.4; cited from earlier work
chicken KDELR2 = target: T1, chicken KDELR2 (Gallus gallus, UniProt Q5ZKX9); assay: Competition binding assay, [3H]-TAEHDEL against unlabelled peptide; conditions: for IC50: competition with [3H]-TAEHDEL, free (COOH) or amidated (CONH) C-terminus, pH 5.4, read-out: Competitor peptide IC50
T1 construct: GFP (of the pDDGFP vector); made in house; host or cells: Saccharomyces cerevisiae Bj5460
T1 sequence (Q5ZKX9 1-212): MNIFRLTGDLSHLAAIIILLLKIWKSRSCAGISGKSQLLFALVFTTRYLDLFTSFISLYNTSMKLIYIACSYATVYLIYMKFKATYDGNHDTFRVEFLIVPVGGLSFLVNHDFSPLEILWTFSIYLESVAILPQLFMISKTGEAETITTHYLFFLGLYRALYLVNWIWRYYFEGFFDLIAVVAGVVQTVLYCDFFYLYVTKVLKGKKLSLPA
Description: (§1) Figure 1. ER retrieval signal abundance and affinity are not correlated. (a) Sequence logos for ER resident proteins with C-terminal KDEL retrieval signals and variants thereof calculated using frequency or protein abundance ([Itzhak et al., 2017]; [Itzhak et al., 2016]). (b) Combined cellular concentrations of ER resident proteins with canonical KDEL, RDEL, and HDEL retrieval sequences in HeLa cells and mouse brain. (c) Competition binding assays for [^3H]-TAEHDEL and unlabelled TAEKDEL, TAERDEL, and TAEHDEL to the KDEL receptor. IC50 values for the competing peptides were used to calculate the apparent KDwith the Cheng-Prusoff equation ([Cheng and Prusoff, 1973]). (d) Endogenous KDEL receptor redistribution was measured in COS-7 cells in the absence (-ligand) or presence of K/R/H/A/DDEL (mScarlet-xDEL^sec). TGN46 was used as a Golgi marker. Scale bar is 10 µm. (e) The mean difference for K/R/H/A/DDEL comparisons against the shared no ligand control are shown as Cummings estimation plots. The individual data points for the fraction of KDEL receptor fluorescence in the Golgi are plotted on the upper axes with sample sizes and p values. Figure 1—source data 1. Source data for the ligand-induced KDELR receptor retrieval assays in Figure 1e. Figure 1—figure supplement 1. Abundance of ER resident proteins and chaperones in human cells and mouse brain. (a) The mean concentration of ER resident chaperones with the indicated ER retrieval sequence variant is plotted in the bar graph ([Itzhak et al., 2017]; [Itzhak et al., 2016]). […] Endogenous ER chaperone secretion was measured by western blotting after challenge with different retrieval signals, and plotted as a bar graph showing mean ± SEM (n = 3). […] (a) Distribution of human KDELR1 and (b) KDELR2 was measured in COS-7 cells in the absence (-ligand) or presence of K/R/H/A/DDEL retrieval signals (K/R/H/A/DDEL^sec). […] The fraction of KDEL receptor localised to the Golgi was measured before (no ligand) and after challenge with different retrieval signals as indicated. […]

[7] = system: endogenous KDEL receptor in COS-7 cells; assay: ER retrieval assay, endogenous KDEL receptor redistribution; format: cell-based, African green monkey; conditions: COS-7 cells
Description: as §1, with “1.” for “1. Abundance of ER resident proteins and chaperones in human cells and mouse brain. (a) The mean concentration of ER resident chaperones with the indicated ER retrieval sequence variant is plotted in the bar graph ([Itzhak et al., 2017]; [Itzhak et al., 2016]).”
To create KDELR1-GFP and KDELR2-GFP, the reading frames for Homo sapiens KDELR1 (Uniprot: P24390) and KDELR2 (Uniprot: P33947) were cloned into the pEF5/FRT low level mammalian expression vector with a C-terminal 20 amino acid linker made up of 5 copies of Gly-Ser-Ser-Ser followed by GFP. […]

human KDELR1 = target: T2, human KDELR1 (Homo sapiens, UniProt P24390); assay: ER retrieval assay, WT KDELR1-GFP; format: cell-based; conditions: COS-7 cells, WT human KDEL receptor-GFP with mScarlet ligand
T2 construct: expressed in transfected cells; host or cells: COS-7
Description: To create KDELR1-GFP and KDELR2-GFP, the reading frames for Homo sapiens KDELR1 (Uniprot: P24390) and KDELR2 (Uniprot: P33947) were cloned into the pEF5/FRT low level mammalian expression vector with a C-terminal 20 amino acid linker made up of 5 copies of Gly-Ser-Ser-Ser followed by GFP. Specific point mutations were introduced using the Quickchange protocol (Stratagene) and are described in the key resources table and figures. To create the mScarlet-KDEL^sec ligand construct, mScarlet with an N-terminal hGH signal peptide and the 16 C-terminal residues of human BiP at its C-terminus, containing the KDEL signal, was cloned into the pcDNA3.1 vector. […] The Golgi marker protein TGN46 was detected by antibody (sheep anti-TGN46 AHP500G; AbD Serotec) and an Alexa 647 conjugated secondary anti-sheep secondary (A-21448, Invitrogen). In Figure 1d and e, endogenous KDELR was detected by antibody (mouse anti-KDELR ADI-VAA-PT048; Enzo Life Sciences) and Alexa 488 conjugated anti-mouse secondary antibody (A-21202, Invitrogen). For retrieval assays in other figures, KDELR-GFP fusion proteins were directly detected by fluorescence. The mScarlet-xDEL fusion proteins were directly detected by fluorescence. […] The fraction of KDEL receptor in the Golgi apparatus was calculated by dividing the Golgi signal by the total cell signal. […]

[8] = target: T3, TAEHDEL retrieval signal peptide; assay: [3H]-peptide filter binding assay, pH 5.4
T3 chain: TAEHDEL

[9] = target: T4, TAEKDEL retrieval signal peptide (BiP) (Homo sapiens); assay: [3H]-peptide filter binding assay, pH 5.4
T4 chain: TAEKDEL

Chain of [3H]-TAEKDEL retrieval-signal peptide (P11021 whole entry, looked up, tested part not stated): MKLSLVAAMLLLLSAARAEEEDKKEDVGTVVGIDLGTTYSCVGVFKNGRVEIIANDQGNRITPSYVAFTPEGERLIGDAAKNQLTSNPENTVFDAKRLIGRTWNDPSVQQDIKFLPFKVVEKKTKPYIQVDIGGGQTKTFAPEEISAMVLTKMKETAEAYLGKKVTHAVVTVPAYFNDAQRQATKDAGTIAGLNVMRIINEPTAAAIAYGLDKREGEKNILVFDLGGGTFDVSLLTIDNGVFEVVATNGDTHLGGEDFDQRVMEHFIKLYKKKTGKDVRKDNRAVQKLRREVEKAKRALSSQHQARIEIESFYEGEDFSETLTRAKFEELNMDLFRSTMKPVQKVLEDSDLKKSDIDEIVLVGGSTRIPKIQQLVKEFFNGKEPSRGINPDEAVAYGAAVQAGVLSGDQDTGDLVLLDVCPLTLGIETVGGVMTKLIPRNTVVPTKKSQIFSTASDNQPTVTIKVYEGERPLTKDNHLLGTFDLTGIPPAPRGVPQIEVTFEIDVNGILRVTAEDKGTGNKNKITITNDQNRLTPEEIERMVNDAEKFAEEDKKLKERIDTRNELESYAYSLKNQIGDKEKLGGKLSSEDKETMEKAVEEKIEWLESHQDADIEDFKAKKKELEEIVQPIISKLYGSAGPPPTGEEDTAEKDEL
Chain of [3H]-TAEHDEL retrieval-signal peptide K to H at position -4 relative to TAEKDEL (K651H in human BiP numbering) (P11021 whole entry K651H, looked up, tested part not stated): as the sequence (P11021 whole entry, looked up, tested part not stated) above, with K651H counted along it
Chain of TAEKDEL retrieval-signal peptide (unlabelled) (P11021 whole entry, looked up, tested part not stated): as the sequence (P11021 whole entry, looked up, tested part not stated) above
T2 sequence (P24390 whole entry): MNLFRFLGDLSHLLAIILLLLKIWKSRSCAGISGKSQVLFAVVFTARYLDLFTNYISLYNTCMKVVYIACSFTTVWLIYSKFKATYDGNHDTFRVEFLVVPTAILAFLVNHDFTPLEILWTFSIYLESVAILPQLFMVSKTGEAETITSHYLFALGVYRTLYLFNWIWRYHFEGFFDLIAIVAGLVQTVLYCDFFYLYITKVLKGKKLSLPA
Chain of TAERDEL retrieval-signal peptide (unlabelled) K to R at position -4 relative to TAEKDEL (K651R in human BiP numbering) (P11021 whole entry K651R, looked up, tested part not stated): as the sequence (P11021 whole entry, looked up, tested part not stated) above, with K651R counted along it
Chain of TAEHDEL retrieval-signal peptide (unlabelled) K to H at position -4 relative to TAEKDEL (K651H in human BiP numbering) (P11021 whole entry K651H, looked up, tested part not stated): as the sequence (P11021 whole entry, looked up, tested part not stated) above, with K651H counted along it

KD (apparent, from IC50) [1]: KD 0.24 µM
KD (apparent, from IC50) [2]: KD 1.94 µM
KD (apparent, from IC50) [3]: KD 2.71 µM
KD ([4]; pH 5.4): 0.26 ± 0.04 µM
fraction of maximal binding ([4]; pH 6.4): ~ 60% maximal binding
KD [5]: 1.9 ± 0.46 µM
Molecule: KDEL receptor 2 (KDELR2, ER lumen protein-retaining receptor 2), wild type
fraction of maximal binding [6]: <20%

binding of C-terminally amidated peptide to wild-type receptor (in words) (chicken KDELR2; amidated C-terminus): completely abolished binding
Molecule: TAEKDEL-CONH [KDEL^CONH, C-amidated peptide variant]

IC50 (chicken KDELR2): 152 ± 21.7 µM
Molecule: TAEKDEL-OH [KDEL, TAEKDEL]

Kd [8]: 5.5 µM
B2: KDEL receptor 2 (protein)
chain: T1 sequence (Q5ZKX9 1-212) with W120F

Kd [8]: 0.52 µM
Kd [9]: 2.1 µM
B3: KDEL receptor 2 (protein)
chain: T1 sequence (Q5ZKX9 1-212) with E117D

The next lines start with the molecule.

Molecule: TAEHDEL-NH2 [HDEL^CONH, TAEHDEL-CONH]
IC50 (chicken KDELR2): 1750 ± 170 µM

Molecule: TAEKDEL
localisation of the mScarlet ligand (in words) [7]: retrieved to the ER

Molecule: pcDNA3.1 hGHss-mScarlet-S. cerevisiae BiP667-682 [FEHDEL]
ligand-induced receptor retrieval to the ER (in words) (human KDELR1): functional

B1: KDEL receptor 2 (protein)
chain: T1 sequence (Q5ZKX9 1-212) with E117A
Kd [8]: 0.52 µM
Kd [9]: ~9.3 µM
